Results published in the DeepSol protein solubility set.

Assay: soluble on expression in E. coli; label from the status in PepcDB or PDB records
In the case of “MSLDLKQVLRATMVKGVLQRGTIALGNDPGVLRIYTRAACPGTLAKNYLGEWCFASKVAEEASPRVHVVGDIHGNIEALFKVLIRTKLFILDEPMSNESYEGYEDPEEPFSVKGWGVHPRYAVEGTQKYIVKDYDHIYLFLGDYVDRGSFSIECLVVLLGLKILFPNAVYLLRGNHETRACLQRGQLFQELIHKYEYVEASKITDRLLRLFDALPTCALINDYVFAVHAGIYSKNASLADIEKYCTKRAPCSKFHTKAPYFDPLHNMLWADFVEDQPAIDLSQDNRRRNTGIVFYPSTVKEFLKNEGLGLFIRGHQSTPFGVSISQTGKLVTVSINSDSTPTWLGAVLTLVHPADADASESISPVNLASEGHHHHHH”, the “soluble on expression in E. coli” value is reported as “not soluble”. For “MENKLKLVVVGDTYTGKTSLLVAYTKKQFLDNYTTTVFDNWAVSVHIDNKNYAVNLFDTAGQGNYEQIRCLSYPHANVFLVCFSMIDRKTLESCRSTWIPEIRKYAGDNVPIMLVGTKNDLVDDADSRNTVTEDYAKRVAHEIGCHKFYSCSALTHKGLKRVFDESFLAAVGVKLEEETPNPCCTIL”, the “soluble on expression in E. coli” value was “not soluble”. In the case of “QCGACGESYAADEFWICCDLCEMWFHGKCVKITPARAEHIKQYKCPSCSNK”, the “soluble on expression in E. coli” value is reported as “soluble”. For “MHRVEETRRIAPEEGNPVLISQIKDASGNITVAVREEGGQARAVKGAASVYALAMEAANGGKSLADVVSAHGLGDAVDLDKAYAEGRFLPPITHPDPAHLHLTGTGLTHLGSAATRDSMHKKTTEAAEESLTDSMKMFRMGLENGKPKAGEKGVQPEWFYKGNGHVAAAPGAALTSPSFALDGGEEPEMAGIYVISDKGEAVRIGFAVSNEFSDHVTERVNYLYLAHSKLRPASFGPEIRVGAAPSDIRGTSRIRRGDKVIFEKPFVSGEDNMSHTFANLEYHHFKYGLFRAPGDVHVHMFGTATLSFAEGIKPEAGDVFEIEAAGFGLPLKNPLAVDSEEEIVVRQI”, the “soluble on expression in E. coli” value was “not soluble”. For “MLEFQTPELLRMPLQELCLHTKLLAPVNCPIADFLMKAPEPPPALIVRNAVQMLKTIDAMDTWEDLTELGYHLADLPVEPHLGKMVLCAVVLKCLDPILTVACTLAYRDPFVLPTQASQKRAAMLCRKRFTAGAFSDHMALLRAFQAWQKARSDGWERAFCEKNFLSQATMEIIIGMRTQLLGQLRASGFVRARGGGDIRDVNTNSENWAVVKAALVAGMYPNLVHVDRENLVSTGPKEKKVRFHPASVLSQPQYKKIPPANGQAAAIKALPTDWLIYDEMTRAHRIANIRCCSAVTPVTILVFCGPARLASNALQEPSSFRVDGIPNDSSDSEMEDKTTANLAALKLDEWLHFTLEPEAASLLLQLRQKWHSLFLRRMRAPSKPWSQVDEATIRAIIAVLSTEEQSAGLQQPSGIGQRPRPMSSEELPLASSWRSNNSRKSSADTEFSDECTTAERVLMKSPSPALHPPRKYKDRGILHPKRGTEDRSDQSSLKSTDSSSYPSPCASPSPPSSGKGSKSPSPRPNMPVRYFIMKSSNLRNLEISQQKGIWSTTPSNERKLNRAFWESSIVYLVFSVQGSGHFQGFSRMSSEIGREKSQDWGSAGLGGVFKVEWIRKESLPFQFAHHLLNPWNDNKKVQISRDGQELEPQVGEQLLQLWERLPLGEKNTTD”, the “soluble on expression in E. coli” value was “soluble”. In the case of “MGSDKIHHHHHHMSLFAALRLPREILFGKGQRHALSTVAGRFGRHALVCTDERFAGTAVFAEIVQSLQAASIEVLVHDRVLPDVPRDSVGICVDEAEKFQPEMVIGIGGGSCLDFAKCADLLLSHGGKLQDYYGEFKVPGPTLPLIAVPTTAGTGSEVTPVAVISDPDRTLKVGISSPYLIAAVALCDPELTMTCPPALTAIAGADALTHAIEAFTAKQRGEDPSLAQQHVFIGKTALTDHFALLAIKLLGRSLEKACTDGTDADARADVMMGALAAGCAFGTAGTAAAHAVQYPAGALTHTAHGLGVATMMPYVMTYNSRVVAAEMAEIGDALGLEAKGRSAEEMADATIKEIRRLFTAIGITPTLADLGLPADKLDWTADQALGIDRLIKNNPRPFDLTAMRRLVQAAHDGDLAACAM”, the “soluble on expression in E. coli” value is reported as “not soluble”. In the case of “MAHHHHHHMQRWPCRRCCRAATLGSRTFVLVRRRAPSAFITTASHASSGAAPPWTVAHQRVCIIIPPVEKLTTPPSPRLSRRYVDSQTLDDSRTQQADAQEPDHFRFAIKNSERGLLDHGVTPDAIAFIAEAEEEYRASSSYLHDRPGGAGMPESETHVDEVTGQQTTTTRIAAPFGETYVPSNRERFAERQRVGELSRQLNLVDKPFMLDEHAQLNLRKERQLCELLASPMPQLAKADEVAHFLLNGVYAQNLALQPRSCESVMLLYSHASFLRRLEGPTKQLTGRAHDAARLAAPSSGADTRAVPRTPQDVPFLDDMRRLYTHQKRCFISPTPLSLEHFMTTLSVITAPSTTAFHLANRLLLDADKFVLLPTRTTYTAYFTVCHVNNAMQFAMARYTDAVQALQLPVDAPMLTALLKGLNESGYVEEAVSLLSRIGHVAVSTPLLNASLETLLLSEQALACFSLYDAMRGSSVKPNAETYTLLLLACEKSQQWRRVTAILAEMQRRRVRGNEQTLNLLLKGLLQERLHSYAAQLYHTMLAKKVPLWPALELGVRPLLR”, the “soluble on expression in E. coli” value is reported as “not soluble”. In the case of “MLTGLLDVPYRKSFALLEELLERREAEEQTLAISTLATQLKMQQNTILQSVALLQTEIEKNGWENLFSLSANAKEITFWFAPYFQLSFLMPYFVKKSFAYQVLTYAFNHNAIDSKHFEKVLEISSSTFTRKIGQLNQWLQKYQIEINLKRTNVLVGKEKDIRIFFMMLFWNNYSEGDWPLHTITKKEVHSLFRRLKHSVSFNTTQDFTKDLIFSAVILARWKEGFFIKETFVEEEAIVNPFVNLSEFELFFKEEALHQVPTKFIQKEGLFAFFLLTISVSYATQDVLEIPAARMHMVQLLGSPIKEIIYQLTSFYQIKLTFHEYLYLYTSIQNLSVFFKTFVTIANPFVQESFLKEALQKIQVSTKM”, the “soluble on expression in E. coli” value is reported as “not soluble”. In the case of “MSLGETAWCRHPLAYLVEAADDICYALLDLEDGLEMGILRFDEVAEILIQIAGGAPEGYDGMRARGVSQRRRIATLRGAAMERAVNDVAAVFVAHESALLGGTLSEDLLELCHPDLGWGVGTAKRIARERIFQNERKAKLEIGAYTTLGILLEAFIGAAHELHYSGQSSFKHQRVLALIGENTPKSSWSLYASYRRMLDFIGGMTDHYAVDLAQEMGGRLEGHHHHHH”, the “soluble on expression in E. coli” value is reported as “not soluble”. In the case of “MEDPQSKEPAGEAVALALLESPRPEGGEEPPRPSPEETQQCKFDGQETKGSKFITSSASDFSDPVYKEIAITNGCINRMSKEELRAKLSEFKLETRGVKDVLKKRLKNYYKKQKLMLKESNFADSYYDYICIIDFEATCEEGNPPEFVHEIIEFPVVLLNTHTLEIEDTFQQYVRPEINTQLSDFCISLTGITQDQVDRADTFPQVLKKVIDLMKLKELGTKYKYSLLTDGSWDMSKFLNIQCQLSRLKYPPFAKKWINIRKSYGNFYKVPRSQTKLTIMLEKLGMDYDGRPHCGLDDSKNIARIAVRMLQDGCELRINEKMHAGQLMSVSSSLPIEGTPPPQMPHFRK”, the “soluble on expression in E. coli” value is reported as “soluble”. In the case of “MAGDPMKKQFLEKAVFTVAATAATVVLGNKMADADTYTLQEGDSFFSVAQRYHMDAYELASMNGKDITSLILPGQTLTVNGSAAPDNQAAAPTDTTQATTETNDANANTYPVGQCTWGVKAVATWAGDWWGNGGDWASSASAQGYTVGNTPAVGSIMCWTDGGYGHVAYVTAVGEDGKVQVLESNYKDQQWVDNYRGWFDPNNSGTPGSVSYIYPNLEHHHHHH”, the “soluble on expression in E. coli” value is reported as “soluble”. With “MKKTGWGILGAVAAFTGYAYWSTKHLTVTDYEILSDKIPAEWDGATFVQLSDLHSASFGLYNNPLLSIVNELAPDAVFLTGDMIDGDESPFVTMAVVRKLAKEFPVFYVSGNHEGRSAFYEDFKADMEKHHVAVLENERYFLRKDGAAIMVAGVKDPRFVRDDWAEKELPKQVWEEEALKEALDEATANLSPDYFTILLAHRPEFWPLYQAYPVDLVLSGHAHGGQFRLPLTEGLFAPGQGFMPKWTAGLHSAGGKSLIVSRGLGNVTKLPRLFNDPEIIRITLKAKGDARENLEHHHHHH” the “soluble on expression in E. coli” value was “not soluble”. With “EDNSRYTHFLTQHYDAKPQGRDDRYCESIMRRRGLTSPCKDINTFIHGNKRSIKAICSQKNVACKNGQTNCYISKSSFQVTTCKLHGGSPWPPCQYRATAGFRNVVVACENGLPVHLDQSIFR” the “soluble on expression in E. coli” value was “soluble”. In the case of “MGSDKIHHHHHHMINKELTAATFMEVIAEDNRFIYDGIDSNFEPELVFLEFFEALLSFAFICVTDQMTKSYTNVPADDVSGNKHETIYTILNQDAQNKSPSAVMSHESDAAHSDSARSSSSKLELSPDVNKIRKSEPKIKKSVSHERVSKMNFKLTGKGITFFSSESKKYERPKDDREEEFNTWVNNTYVFFVNTLFHAYKREEAIKEKIRADRLRSTAQAQQRKMEDDELEARLNIFILREEEAKRHDYEVDITVLKEPADVSSSHLILDPPKEDVTVSPSSKTITSKKKKK”, the “soluble on expression in E. coli” value is reported as “not soluble”. With “MAHHHHHHMLVKENHSVILYADEENVELVKLTSDGVLTNRKGTFLHKNIIGKKYGSKIYDSACRNYIYVLRRTPEFVAISLKKKTQTLYEHDISFICLLCNALPNKKIIEAGTGTGCLTYALASCVLPKGVIHTFEYNEERYEEVRNEFSNFENVKNNIKFHHKDVISDSFVEFQPGEIDSVFLDMPNPWLCVPHVKKVLKERGVFVIFLPCIEQVYKIIEALEENQFCEIVTYELVNKSWEIIRNGGPAGGCKRARQFSLGGAKETSDPLEGVKETGDPLEGVKETGGPLEGVKETGDPLEGVKETGDPLERAKQSNDPLERAKQSSDPSNEQKNCPTPAQSQNPTYRLRQKENKTHTGYLIFSKKELSDEHEQIEIELKGV” the “soluble on expression in E. coli” value was “not soluble”. In the case of “MSLKFVTIRDIAREAGVSINTVSRALNDKPDINVETKKKVLEVADRLGYIRDATAVSLRYGLTRVIGVILEDSSNPFYSEVLKGIEMAAKKKKFNVIFMNTERSYELENEAIKTMIGRRVDGMIISPTQEKCDDIKLLSEKGIPFVVLGVHFDELNVPEIYTDDEKGGYLATKHLIEIGRRRILFLNGFTYKSVAKMRLNGYRKALKEFGLEYDKSLVHEIEEGYENAYNKVKELLKKGIKFDSIFCFNDVFAIGAIGALKEEGIKVPQDIAVVGYDDIYFSKFISPSLTTVKIDKILEGKLAFEMLHGILTKKTGKNVKNVLDVELIVRESTIDKIGEGHHHHHH”, the “soluble on expression in E. coli” value is reported as “soluble”. With “MHRPEAEKWLRRFERAPDARARLVCLPHAGGSASFFFPLAKALAPAVEVLAVQYPGRQDRRHEPPVDSIGGLTNRLLEVLRPFGDRPLALFGHAMGAIIGYELALRMPEAGLPAPVHLFASGRRAPSRYRDDDVRGASDERLVAELRKLGGSDAAMLADPELLAMVLPAIRSDYRAVETYRHEPGRRVDCPVTVFTGDHDPRVSVGEARAWEEHTTGPADLRVLPGGHFFLVDQAAPMIATMTEKLAGPALTGSTGGNSLEHHHHHH” the “soluble on expression in E. coli” value was “soluble”. With “MDYFPIFCQLQHKACLLVGGGEIAERKARLLLDAGALVTVNACEFTPQFHHWADQGQLSLISGEFVPELLADKWLVIAATDQLSVNALVYQSANQQRIFCNVVDDPKRTSFIMPSIIDRSPIMIAVSSGGKAPVLARLLREKLEALLPQHLGQLAGNLRQRVKQHFTVMTERRRFWEKLLTHDRLAQSLANNDHVQADQHVEQLFSAPLTDRGEVVLVGAGPGDAGLLTLKGLQQIQQADVVVYDRLVSDEVMNLVRRDAERIFVGKQSGHHCVPQEQINQILLQQAQSGKRVVRLKGGDPFIFGRGGEELEELAGYGIPFSVVPGITAASGCSAYSGIPLTHRDHAQSVRLVTGHAKKEGQLDWANLAAEKQTLVFYMGLSQAGEIQQQLIQHGMPATTQVALVENGTSRHQRVVSGELSQLALLSQQVSSPSLIIVGSVVSLREKLNWFSSRHHDDQPKVTECVAHVG” the “soluble on expression in E. coli” value was “not soluble”.
